Bridges are numbered along the chain shown (N, C = ends). Where no end group is shown, it is not given here. [ ]: non-standard residue; d: D form.
B1: SEQ ID NO 31 (peptide)
peptide: CWLDVC-OH
modifications: disulfide 1-6; N-terminus assumed
SMILES: CC(C)C[C@@H]1NC(=O)[C@H](Cc2c[nH]c3ccccc23)NC(=O)[C@@H](N)CSSC[C@@H](C(=O)O)NC(=O)[C@H](C(C)C)NC(=O)[C@H](CC(=O)O)NC1=O
notes: Disulfide cyclic peptide; also called Cys-Trp-Leu-Asp-Val-Cys-acid
B2: SEQ ID NO 18 (peptide)
peptide: Ac-CWLDVC-OH
modifications: disulfide 1-6
SMILES: CC(=O)N[C@H]1CSSC[C@@H](C(=O)O)NC(=O)[C@H](C(C)C)NC(=O)[C@H](CC(=O)O)NC(=O)[C@H](CC(C)C)NC(=O)[C@H](Cc2c[nH]c3ccccc23)NC1=O
notes: Disulfide cyclic peptide; also called Ac-Cys-Trp-Leu-Asp-Val-Cys-acid
B3: SEQ ID NO 24 (peptide)
peptide: CWMDVC-OH
modifications: disulfide 1-6; N-terminus assumed
SMILES: CSCC[C@@H]1NC(=O)[C@H](Cc2c[nH]c3ccccc23)NC(=O)[C@@H](N)CSSC[C@@H](C(=O)O)NC(=O)[C@H](C(C)C)NC(=O)[C@H](CC(=O)O)NC1=O
notes: Disulfide cyclic peptide; also called Cys-Trp-Met-Asp-Val-Cys-acid
B4: SEQ ID NO 29 (peptide)
peptide: CWLDYC-OH
modifications: disulfide 1-6; N-terminus assumed
SMILES: CC(C)C[C@@H]1NC(=O)[C@H](Cc2c[nH]c3ccccc23)NC(=O)[C@@H](N)CSSC[C@@H](C(=O)O)NC(=O)[C@H](Cc2ccc(O)cc2)NC(=O)[C@H](CC(=O)O)NC1=O
notes: Disulfide cyclic peptide; also called Cys-Trp-Leu-Asp-Tyr-Cys-acid
B5: SEQ ID NO 28 (peptide)
peptide: CWLDLC-OH
modifications: disulfide 1-6; N-terminus assumed
SMILES: CC(C)C[C@@H]1NC(=O)[C@H](CC(=O)O)NC(=O)[C@H](CC(C)C)NC(=O)[C@H](Cc2c[nH]c3ccccc23)NC(=O)[C@@H](N)CSSC[C@@H](C(=O)O)NC1=O
notes: Disulfide cyclic peptide; also called Cys-Trp-Leu-Asp-Leu-Cys-acid
B6: SEQ ID NO 23 (peptide)
peptide: CWIDVC-OH
modifications: disulfide 1-6; N-terminus assumed
SMILES: CC[C@H](C)[C@@H]1NC(=O)[C@H](Cc2c[nH]c3ccccc23)NC(=O)[C@@H](N)CSSC[C@@H](C(=O)O)NC(=O)[C@H](C(C)C)NC(=O)[C@H](CC(=O)O)NC1=O
notes: Disulfide cyclic peptide; also called Cys-Trp-Ile-Asp-Val-Cys-acid
B7: SEQ ID NO 22 (peptide)
peptide: CWLDWC-OH
modifications: disulfide 1-6; N-terminus assumed
SMILES: CC(C)C[C@@H]1NC(=O)[C@H](Cc2c[nH]c3ccccc23)NC(=O)[C@@H](N)CSSC[C@@H](C(=O)O)NC(=O)[C@H](Cc2c[nH]c3ccccc23)NC(=O)[C@H](CC(=O)O)NC1=O
notes: Disulfide cyclic peptide; also called Cys-Trp-Leu-Asp-Trp-Cys-acid
B8: SEQ ID NO 25 (peptide)
peptide: CWVDVC-OH
modifications: disulfide 1-6; N-terminus assumed
SMILES: CC(C)[C@@H]1NC(=O)[C@H](CC(=O)O)NC(=O)[C@H](C(C)C)NC(=O)[C@H](Cc2c[nH]c3ccccc23)NC(=O)[C@@H](N)CSSC[C@@H](C(=O)O)NC1=O
notes: Disulfide cyclic peptide; also called Cys-Trp-Val-Asp-Val-Cys-acid
B9: SEQ ID NO 19 (peptide)
peptide: CYLDVC-OH
modifications: disulfide 1-6; N-terminus assumed
SMILES: CC(C)C[C@@H]1NC(=O)[C@H](Cc2ccc(O)cc2)NC(=O)[C@@H](N)CSSC[C@@H](C(=O)O)NC(=O)[C@H](C(C)C)NC(=O)[C@H](CC(=O)O)NC1=O
notes: Disulfide cyclic peptide; also called Cys-Tyr-Leu-Asp-Val-Cys-acid
B10: SEQ ID NO 21 (peptide)
peptide: CFLDVC-OH
modifications: disulfide 1-6; N-terminus assumed
SMILES: CC(C)C[C@@H]1NC(=O)[C@H](Cc2ccccc2)NC(=O)[C@@H](N)CSSC[C@@H](C(=O)O)NC(=O)[C@H](C(C)C)NC(=O)[C@H](CC(=O)O)NC1=O
notes: Disulfide cyclic peptide; also called Cys-Phe-Leu-Asp-Val-Cys-acid
B11: SEQ ID NO 26 (peptide)
peptide: CWKDVC-OH
modifications: disulfide 1-6; N-terminus assumed
SMILES: CC(C)[C@@H]1NC(=O)[C@H](CC(=O)O)NC(=O)[C@H](CCCCN)NC(=O)[C@H](Cc2c[nH]c3ccccc23)NC(=O)[C@@H](N)CSSC[C@@H](C(=O)O)NC1=O
notes: Disulfide cyclic peptide; also called Cys-Trp-Lys-Asp-Val-Cys-acid
B12: SEQ ID NO 20 (peptide)
peptide: CWLDFC-OH
modifications: disulfide 1-6; N-terminus assumed
SMILES: CC(C)C[C@@H]1NC(=O)[C@H](Cc2c[nH]c3ccccc23)NC(=O)[C@@H](N)CSSC[C@@H](C(=O)O)NC(=O)[C@H](Cc2ccccc2)NC(=O)[C@H](CC(=O)O)NC1=O
notes: Disulfide cyclic peptide; also called Cys-Trp-Leu-Asp-Phe-Cys-acid
B13: SEQ ID NO 32 (peptide)
peptide: [dC]WLDVC-OH
modifications: disulfide 1-6; N-terminus assumed
SMILES: CC(C)C[C@@H]1NC(=O)[C@H](Cc2c[nH]c3ccccc23)NC(=O)[C@H](N)CSSC[C@@H](C(=O)O)NC(=O)[C@H](C(C)C)NC(=O)[C@H](CC(=O)O)NC1=O
notes: Disulfide cyclic peptide; also called dCys-Trp-Leu-Asp-Val-Cys-acid
B14: SEQ ID NO 17 (peptide)
peptide: C[dW]LDVC-OH
modifications: disulfide 1-6; N-terminus assumed
SMILES: CC(C)C[C@@H]1NC(=O)[C@@H](Cc2c[nH]c3ccccc23)NC(=O)[C@@H](N)CSSC[C@@H](C(=O)O)NC(=O)[C@H](C(C)C)NC(=O)[C@H](CC(=O)O)NC1=O
notes: Disulfide cyclic peptide; also called Cys-dTrp-Leu-Asp-Val-Cys-acid
B15: SEQ ID NO 36 (peptide)
peptide: CEWLDYC-OH
modifications: disulfide 1-7; N-terminus assumed
SMILES: CC(C)C[C@@H]1NC(=O)[C@H](Cc2c[nH]c3ccccc23)NC(=O)[C@H](CCC(=O)O)NC(=O)[C@@H](N)CSSC[C@@H](C(=O)O)NC(=O)[C@H](Cc2ccc(O)cc2)NC(=O)[C@H](CC(=O)O)NC1=O
notes: Disulfide cyclic peptide; also called Cys-Glu-Trp-Leu-Asp-Tyr-Cys-acid
B16: SEQ ID NO 37 (peptide)
peptide: CSFLDYC-OH
modifications: disulfide 1-7; N-terminus assumed
SMILES: CC(C)C[C@@H]1NC(=O)[C@H](Cc2ccccc2)NC(=O)[C@H](CO)NC(=O)[C@@H](N)CSSC[C@@H](C(=O)O)NC(=O)[C@H](Cc2ccc(O)cc2)NC(=O)[C@H](CC(=O)O)NC1=O
notes: Disulfide cyclic peptide; also called Cys-Ser-Phe-Leu-Asp-Tyr-Cys-acid
B17: SEQ ID NO 33 (peptide)
peptide: CEWLDVC-NH2
modifications: disulfide 1-7; N-terminus assumed
SMILES: CC(C)C[C@@H]1NC(=O)[C@H](Cc2c[nH]c3ccccc23)NC(=O)[C@H](CCC(=O)O)NC(=O)[C@@H](N)CSSC[C@@H](C(N)=O)NC(=O)[C@H](C(C)C)NC(=O)[C@H](CC(=O)O)NC1=O
notes: Disulfide cyclic peptide; also called Cys-Glu-Trp-Leu-Asp-Val-Cys-amide
B18: SEQ ID NO 34 (peptide)
peptide: CEWLDVC-OH
modifications: disulfide 1-7; N-terminus assumed
SMILES: CC(C)C[C@@H]1NC(=O)[C@H](Cc2c[nH]c3ccccc23)NC(=O)[C@H](CCC(=O)O)NC(=O)[C@@H](N)CSSC[C@@H](C(=O)O)NC(=O)[C@H](C(C)C)NC(=O)[C@H](CC(=O)O)NC1=O
notes: Disulfide cyclic peptide; also called Cys-Glu-Trp-Leu-Asp-Val-Cys-acid
B19: SEQ ID NO 16 (peptide)
peptide: CSWLDVC
modifications: disulfide 1-7
notes: Disulfide cyclic peptide; also called Cys-Ser-Trp-Leu-Asp-Val-Cys

biological target: T1, integrin α4β1 (human, UniProt P13612 34-1032; P05556 21-798); assay: inhibition of HL-60 cell (α4β1) binding to VCAM-IgG coated beads, fluorimetry
T1 construct: whole, on cells; also called VLA-4; very late antigen-4
Experimental: The media was collected and active protein was purified by immunoprecipitation using Dynal magnetic polystyrene beads coated with goat anti-mouse IgG. Following immunoprecipitation, the beads bound cells that expressed the integrin α_4β_1 such as Ramos and HL-60.
HL-60 cells were fluorescently labeled with Calcein AM C-3099 (Molecular Probes) and resuspended in 1 ml of binding buffer (Hank's balanced salt solution, pH 7.4, 1.0 mM CaCl_2, 1.0 mM MgCl_2). The beads (10 µl, 4×10^6 beads/ml) were placed in wells of a 96-well microtiter dish with 10 µl of peptide at various concentrations. The beads were incubated with 10 µl of labeled cells (10^7 cells/ml) for 10 min at room temperature. Following immobilization of the beads onto the plastic with a magnet, unbound cells were removed by washing three times with binding buffer. The remaining bound cells were lysed in 50 mM Tris, pH 7.4, 5.0 mM EDTA, 1.0% NP-40 and quantitated by fluorimetry using a Millipore Cytofluor 2350 fluorimeter. Dose response curves were calculated and IC$50$ values determined. Alternatively, the percent adhesion was determined at a single peptide concentration for comparison among peptides.

T1 sequence (P13612 34-1032, chain 1 of 2): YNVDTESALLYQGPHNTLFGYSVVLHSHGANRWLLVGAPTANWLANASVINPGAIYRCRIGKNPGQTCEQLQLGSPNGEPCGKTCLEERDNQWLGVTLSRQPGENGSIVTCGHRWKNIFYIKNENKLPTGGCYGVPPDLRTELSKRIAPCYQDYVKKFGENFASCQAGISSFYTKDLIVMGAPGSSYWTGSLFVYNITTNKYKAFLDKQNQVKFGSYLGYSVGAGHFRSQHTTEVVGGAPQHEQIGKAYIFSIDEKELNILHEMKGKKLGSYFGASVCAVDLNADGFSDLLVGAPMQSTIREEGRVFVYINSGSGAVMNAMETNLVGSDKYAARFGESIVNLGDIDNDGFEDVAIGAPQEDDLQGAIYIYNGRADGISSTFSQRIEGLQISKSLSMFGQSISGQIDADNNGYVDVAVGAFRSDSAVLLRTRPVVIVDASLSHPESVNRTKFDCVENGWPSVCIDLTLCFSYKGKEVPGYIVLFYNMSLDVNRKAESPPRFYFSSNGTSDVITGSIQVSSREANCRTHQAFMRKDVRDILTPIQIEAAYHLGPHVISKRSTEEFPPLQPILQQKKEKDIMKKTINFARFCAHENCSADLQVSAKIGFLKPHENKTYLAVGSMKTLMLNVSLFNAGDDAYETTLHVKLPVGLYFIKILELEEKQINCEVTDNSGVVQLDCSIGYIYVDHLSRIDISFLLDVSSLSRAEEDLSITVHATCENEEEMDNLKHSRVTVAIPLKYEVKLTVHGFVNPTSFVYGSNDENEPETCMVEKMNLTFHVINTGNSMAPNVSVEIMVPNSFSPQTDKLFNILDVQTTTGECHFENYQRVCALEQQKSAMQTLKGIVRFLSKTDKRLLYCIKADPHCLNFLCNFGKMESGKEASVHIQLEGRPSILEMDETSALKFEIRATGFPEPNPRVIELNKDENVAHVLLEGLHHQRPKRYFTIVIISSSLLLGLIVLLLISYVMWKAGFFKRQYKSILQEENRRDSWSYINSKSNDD
T1 sequence (P05556 21-798, chain 2 of 2): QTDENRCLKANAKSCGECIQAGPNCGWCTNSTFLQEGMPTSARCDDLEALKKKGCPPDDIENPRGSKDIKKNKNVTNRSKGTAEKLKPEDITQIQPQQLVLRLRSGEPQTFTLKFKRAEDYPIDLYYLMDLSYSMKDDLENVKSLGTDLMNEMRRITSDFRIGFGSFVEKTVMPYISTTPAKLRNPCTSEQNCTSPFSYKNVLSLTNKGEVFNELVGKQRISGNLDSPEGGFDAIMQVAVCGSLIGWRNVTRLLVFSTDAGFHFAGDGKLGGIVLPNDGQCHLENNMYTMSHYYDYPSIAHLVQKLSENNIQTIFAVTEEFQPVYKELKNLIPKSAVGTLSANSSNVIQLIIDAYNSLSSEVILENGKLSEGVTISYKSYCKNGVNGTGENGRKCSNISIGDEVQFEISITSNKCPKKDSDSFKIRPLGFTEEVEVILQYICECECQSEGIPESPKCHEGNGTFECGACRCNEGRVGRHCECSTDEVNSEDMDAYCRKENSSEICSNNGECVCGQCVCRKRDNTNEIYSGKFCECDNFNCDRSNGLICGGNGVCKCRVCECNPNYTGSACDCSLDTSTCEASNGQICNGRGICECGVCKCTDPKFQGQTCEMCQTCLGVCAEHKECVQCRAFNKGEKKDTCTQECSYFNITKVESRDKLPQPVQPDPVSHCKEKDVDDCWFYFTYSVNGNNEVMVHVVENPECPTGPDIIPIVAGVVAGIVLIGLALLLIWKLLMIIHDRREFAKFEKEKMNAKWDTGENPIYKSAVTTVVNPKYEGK

Row | Binder | peptide concentration that significantly inhibits binding [µM]
1 | B1 | < 10
2 | B2 | < 10
3 | B3 | < 10
4 | B4 | < 10
5 | B5 | < 10
6 | B6 | < 10
7 | B7 | < 10
8 | B8 | < 10
9 | B9 | < 10
10 | B10 | < 10
11 | B11 | < 10
12 | B12 | < 10
13 | B13 | < 10
14 | B14 | < 10
15 | B15 | < 10
16 | B16 | < 10
17 | B17 | < 10
18 | B18 | < 10
19 | B19 | < 10
